The source of these data is the supplement of paper PMC10567573.

First the molecules themselves.
B1: PDZK1 (parent)
chain: RETASLKLLPHQPRIVEMKKGSNG
B2: DVL3 (parent)
chain: FCADNPSELPPPMERTGGIGDSRP
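Further: lentivirally expressed fusions sorted by FACS into six bins by GFP to DsRed ratio, PSI derived from sequencing read proportions per bin multiplied by bin number.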

One data set covers variants of B1. In words: protein stability index of a GFP-peptide fusion (GPS, HEK-293T) (PSI 1-6); higher = more stable. The settings on record: c terminus: a fixed tail appended.
On to SETASLKLLPHQPRIVEMKKGSNG [R1S], for which the protein stability index came out at 3.41.

On to FETASLKLLPHQPRIVEMKKGSNG [R1F], for which the protein stability index amounted to 2.99.

Turning to CETASLKLLPHQPRIVEMKKGSNG [R1C], the protein stability index came to 3.34.

Regarding HETASLKLLPHQPRIVEMKKGSNG [R1H], the protein stability index was found to be 3.14.

With KETASLKLLPHQPRIVEMKKGSNG [R1K], the protein stability index is 3.67.

Regarding EETASLKLLPHQPRIVEMKKGSNG [R1E], the protein stability index turned out to be 3.36.

For TETASLKLLPHQPRIVEMKKGSNG [R1T], the protein stability index was found to be 2.98.

With AETASLKLLPHQPRIVEMKKGSNG [R1A], the protein stability index stood at 3.58.

For the variant DETASLKLLPHQPRIVEMKKGSNG [R1D], the protein stability index was 3.19.

QETASLKLLPHQPRIVEMKKGSNG [R1Q]: the protein stability index amounted to 3.4.

Consider RETNSLKLLPHQPRIVEMKKGSNG [A4N], for which the protein stability index amounted to 3.81.

For RETDSLKLLPHQPRIVEMKKGSNG [A4D], the protein stability index stood at 3.15.

With RETPSLKLLPHQPRIVEMKKGSNG [A4P], the protein stability index stood at 3.8.

For RETQSLKLLPHQPRIVEMKKGSNG [A4Q], the protein stability index was found to be 3.29.

Take RETYSLKLLPHQPRIVEMKKGSNG [A4Y]: the protein stability index turned out to be 3.19.

On to RETFSLKLLPHQPRIVEMKKGSNG [A4F], for which the protein stability index stood at 2.66.

As for RETMSLKLLPHQPRIVEMKKGSNG [A4M], the protein stability index came to 3.27.

Turning to RETGSLKLLPHQPRIVEMKKGSNG [A4G], the protein stability index was found to be 3.17.

As for RETRSLKLLPHQPRIVEMKKGSNG [A4R], the protein stability index worked out at 3.88.

RETISLKLLPHQPRIVEMKKGSNG [A4I]: the protein stability index came out at 2.47.

Take RETLSLKLLPHQPRIVEMKKGSNG [A4L]: the protein stability index stood at 3.05.

RETKSLKLLPHQPRIVEMKKGSNG [A4K]: the protein stability index stood at 3.79.

Regarding RETVSLKLLPHQPRIVEMKKGSNG [A4V], the protein stability index came out at 3.21.

For RETWSLKLLPHQPRIVEMKKGSNG [A4W], the protein stability index was 2.37.

For RETESLKLLPHQPRIVEMKKGSNG [A4E], the protein stability index was determined as 3.43.

With RETSSLKLLPHQPRIVEMKKGSNG [A4S], the protein stability index was determined as 3.17.

RETCSLKLLPHQPRIVEMKKGSNG [A4C]: the protein stability index stood at 3.12.

For RETTSLKLLPHQPRIVEMKKGSNG [A4T], the protein stability index is 3.32.

For the variant RETASLKLCPHQPRIVEMKKGSNG [L9C], the protein stability index is 3.75.

With RETASLKLSPHQPRIVEMKKGSNG [L9S], the protein stability index was 3.26.

RETASLKLAPHQPRIVEMKKGSNG [L9A]: the protein stability index turned out to be 3.39.

RETASLKLGPHQPRIVEMKKGSNG [L9G]: the protein stability index came out at 4.12.

On to RETASLKLHPHQPRIVEMKKGSNG [L9H], for which the protein stability index came out at 3.42.

Turning to RETASLKLVPHQPRIVEMKKGSNG [L9V], the protein stability index amounted to 3.36.

On to RETASLKLPPHQPRIVEMKKGSNG [L9P], for which the protein stability index is 3.

With RETASLKLNPHQPRIVEMKKGSNG [L9N], the protein stability index worked out at 3.79.

For the variant RETASLKLMPHQPRIVEMKKGSNG [L9M], the protein stability index is 3.02.

In the case of RETASLKLDPHQPRIVEMKKGSNG [L9D], the protein stability index came to 3.33.

Consider RETASLKLWPHQPRIVEMKKGSNG [L9W], for which the protein stability index was determined as 2.76.

Regarding RETASLKLRPHQPRIVEMKKGSNG [L9R], the protein stability index is 3.63.

As to RETASLKLQPHQPRIVEMKKGSNG [L9Q], the protein stability index amounted to 3.5.

Regarding RETASLKLEPHQPRIVEMKKGSNG [L9E], the protein stability index came out at 3.11.

RETASLKLTPHQPRIVEMKKGSNG [L9T]: the protein stability index is 3.61.

In the case of RETASLKLKPHQPRIVEMKKGSNG [L9K], the protein stability index was found to be 3.99.

For RETASLKLFPHQPRIVEMKKGSNG [L9F], the protein stability index came out at 3.26.

For the variant RETASLKLYPHQPRIVEMKKGSNG [L9Y], the protein stability index came out at 3.

As to RETASLKLLAHQPRIVEMKKGSNG [P10A], the protein stability index worked out at 3.5.

For the variant RETASLKLLFHQPRIVEMKKGSNG [P10F], the protein stability index is 2.08.

As for RETASLKLLGHQPRIVEMKKGSNG [P10G], the protein stability index is 3.38.

For the variant RETASLKLLHHQPRIVEMKKGSNG [P10H], the protein stability index was 2.54.

As for RETASLKLLEHQPRIVEMKKGSNG [P10E], the protein stability index was found to be 3.14.

Consider RETASLKLLDHQPRIVEMKKGSNG [P10D], for which the protein stability index was determined as 3.21.

With RETADLKLLPHQPRIVEMKKGSNG [S5D], the protein stability index stood at 3.77.

On to RETANLKLLPHQPRIVEMKKGSNG [S5N], for which the protein stability index was 2.93.

As for RETARLKLLPHQPRIVEMKKGSNG [S5R], the protein stability index came to 3.38.

On to RETAQLKLLPHQPRIVEMKKGSNG [S5Q], for which the protein stability index was determined as 3.44.

RETACLKLLPHQPRIVEMKKGSNG [S5C]: the protein stability index was determined as 3.2.

For RETATLKLLPHQPRIVEMKKGSNG [S5T], the protein stability index was determined as 3.39.

For RETAKLKLLPHQPRIVEMKKGSNG [S5K], the protein stability index is 2.67.

As for RETALLKLLPHQPRIVEMKKGSNG [S5L], the protein stability index was found to be 3.73.

On to RETAELKLLPHQPRIVEMKKGSNG [S5E], for which the protein stability index stood at 3.61.

As for RETAFLKLLPHQPRIVEMKKGSNG [S5F], the protein stability index turned out to be 1.88.

Consider RETAPLKLLPHQPRIVEMKKGSNG [S5P], for which the protein stability index was 3.

Take RETAYLKLLPHQPRIVEMKKGSNG [S5Y]: the protein stability index was 2.47.

With RETAWLKLLPHQPRIVEMKKGSNG [S5W], the protein stability index was 2.36.

In the case of RETAILKLLPHQPRIVEMKKGSNG [S5I], the protein stability index came to 2.82.

For the variant RETAHLKLLPHQPRIVEMKKGSNG [S5H], the protein stability index was determined as 2.98.

With RETAGLKLLPHQPRIVEMKKGSNG [S5G], the protein stability index turned out to be 3.26.

Consider RETAVLKLLPHQPRIVEMKKGSNG [S5V], for which the protein stability index is 3.32.

In a further data set the parent is B2. Described as above. As to conditions: c terminus: a fixed tail appended.
For the variant FCADNPSELPPPMERTGGIGDSRY [P24Y], the protein stability index was 3.6.

As for FCADNPSELPPPMERTGGIGDSRL [P24L], the protein stability index turned out to be 3.96.

Turning to FCADNPSELPPPMERTGGIGDSRM [P24M], the protein stability index was determined as 3.65.

For the variant FCADNPSELPPPMERTGGIGDSRS [P24S], the protein stability index worked out at 4.73.

Turning to FCADNPSELPPPMERTGGIGDSRH [P24H], the protein stability index stood at 4.66.

As for FCADNPSELPPPMERTGGIGDSRQ [P24Q], the protein stability index worked out at 4.58.

With FCADNPSELPPPMERTGGIGDSRE [P24E], the protein stability index worked out at 5.45.

For FCADNPSELPPPMERTGGIGDSRN [P24N], the protein stability index was determined as 4.6.

With FCADNPSELPPPMERTGGIGDSRK [P24K], the protein stability index stood at 4.92.

In the case of FCADNPSELPPPMERTGGIGDSRG [P24G], the protein stability index was 4.71.

On to FCADNPSELPPPMERTGGIGDSRD [P24D], for which the protein stability index amounted to 4.86.

FCADNPSELPPPMERTGGIGDSRA [P24A]: the protein stability index was 3.79.

FCADNPSELPPPMERTGGIGDSRV [P24V]: the protein stability index stood at 4.55.

For the variant FCADNPSELPPPMERTGGIGDSRT [P24T], the protein stability index was found to be 4.12.

Consider FCADNPSELPPPMERTGGIGDSRC [P24C], for which the protein stability index is 4.39.

Turning to FCADNPSELPPPMERTGGIGDSRI [P24I], the protein stability index was 4.32.

On to FCADNPSELPPPMERTGGIGDSRF [P24F], for which the protein stability index was 3.82.

For the variant FCADNPSELPPPMERTGGIGDSRR [P24R], the protein stability index worked out at 5.16.

As for FCADNPSELPPPMERTGGIGDSRW [P24W], the protein stability index was 3.23.

For FCADNPSELPPPMERTGGIGDSYP [R23Y], the protein stability index was 4.15.

FCADNPSELPPPMERTGGIGDSTP [R23T]: the protein stability index was found to be 5.04.

Consider FCADNPSELPPPMERTGGIGDSVP [R23V], for which the protein stability index stood at 4.46.

As for FCADNPSELPPPMERTGGIGDSQP [R23Q], the protein stability index turned out to be 4.56.

On to FCADNPSELPPPMERTGGIGDSWP [R23W], for which the protein stability index worked out at 2.21.

Regarding FCADNPSELPPPMERTGGIGDSSP [R23S], the protein stability index worked out at 4.75.
